According to publication PMC12012759 (Protein Science : A Publication of the Protein Society, 2025):

Experiments:
Assay in all cases: ELISA
Details in all cases: both partners purified
[1] = target: T1, Fc fusion of Severe acute respiratory syndrome coronavirus 2 P0DTC2 (SARS‐CoV‐2 Wuhan, UniProt P0DTC2)
T1 construct: also called RBD‐Fc; RBD

[2] = target: full‐length SARS‐CoV‐2 spike protein (1273 amino acids) (SARS-CoV-2 Wuhan, UniProt P0DTC2)
human serum albumin = human serum albumin (Homo sapiens, UniProt P02768)

Measured: binding result

B1: Clostridioides difficile toxin A‐specific A20.1 VHH (VHH)
VHH: QVQLVESGGGLAQAGGSLRLSCAASGRTFSMDPMAWFRQPPGKEREFVAAGSSTGRTTYYADSVKGRFTISRDNAKNTVYLQMNSLKPEDTAVYYCAAAPYGANWYRDEYAYWGQGTQVTVSS
no binding: all assays above
